From patent US20230312755A1

Columns and labels:
human Sclerostin (human) [1] = target: human Sclerostin (human) (UniProt Q9BQB4); assay: BLI (Gator), antibody on anti-hFc biosensor, Sclerostin as analyte, 1:1 global fit
[2] = target: His-tagged human Sclerostin (NCBI reference No. NP_079513.1) (human) (UniProt Q9BQB4); assay: ELISA, plate coated with His-tagged human Sclerostin
human Sclerostin (human) [3] = target: human Sclerostin (human) (UniProt Q9BQB4); assay: cell-based or functional assay

Chain of human Sclerostin (human) (Q9BQB4 24-213 limits assumed): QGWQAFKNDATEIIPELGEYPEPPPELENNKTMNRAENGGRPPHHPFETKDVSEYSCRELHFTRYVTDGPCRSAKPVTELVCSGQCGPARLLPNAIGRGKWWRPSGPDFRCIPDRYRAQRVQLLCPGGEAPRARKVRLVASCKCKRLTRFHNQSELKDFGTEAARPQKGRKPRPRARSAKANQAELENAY
Chain of His-tagged human Sclerostin (NCBI reference No. NP_079513.1) (human) (Q9BQB4 24-213 limits assumed): as above

Kd (human Sclerostin (human) [1]): 0.78 nM
koff (human Sclerostin (human) [1]): 0.00028 s⁻¹
kon (human Sclerostin (human) [1]): 360000 M⁻¹ s⁻¹
EC50 [2]: 0.11 nM
EC50, Sclerostin-neutralisation activity in HEK293/TCF/LEF/Wnt1 cells (luciferase reporter) (human Sclerostin (human) [3]): 42.3 nM
B1: Romosozumab (antibody, INN chains, looked up, V domains shown)
VH: EVQLVQSGAEVKKPGASVKVSCKASGYTFTDYNMHWVRQAPGQGLEWMGEINPNSGGAGYNQKFKGRVTMTTDTSTSTAYMELRSLRSDDTAVYYCARLGYDDIYDDWYFDVWGQGTTVTVSS
VL: DIQMTQSPSSLSASVGDRVTITCRASQDISNYLNWYQQKPGKAPKLLIYYTSRLLSGVPSRFSGSGSGTDFTLTISSLQPEDFATYYCQQGDTLPYTFGGGTKVEIK
